Assay [1] deals with T1, neonatal Fc receptor (FcRn), endogenous in U937 cells (UniProt P55899 24-365; P61769 21-119).
T1 construct: whole, on cells; Free FcRn was stained inside fixed and permeabilised cells
As to the kind of experiment: cell FcRn occupancy, flow cytometry, free FcRn stained with labelled anti-FcRn Fab, U937 cells, 2,500 nM HSA (SD 0.1). A general note: Flow cytometry measures light scatter and fluorescence of single cells or particles in a stream.
Experimental: (§1) Next, FcRn occupancy was tested using a cell-based FcRn occupancy assay in the presence or absence of albumin. Briefly, test articles (Fc-ABDEG-VHH molecules) were pre-incubated with HSA for 30 minutes at 37° C., pH 7.4 in FACS buffer. Cells (HEK FcRn mut or U937) were plated in a 96-well microplate. Cells were incubated with test article for two hours, shaking at 37° C., pH 7.4 in FACS buffer. Plates were then transferred immediately on ice and cells were collected by centrifugation at 4° C. Cells stained for viability in FACS buffer at pH 6 and then fixed/permeabilized in permeabilization buffer at pH 6. […] Cells were analyzed by FACS, ensuring that they are kept on ice until immediately prior to analysis.

Assay [2] concerns the target T2, human serum albumin (human, UniProt P02768 25-609).
T2 construct: Immobilised on SPR chips; also added in solution to the cell assays; also called HSA; humanSA
As to the kind of experiment: SPR, Langmuir 1:1 or steady state model, pH 7.4 (ka and kd N/A). (In general: Surface plasmon resonance follows binding to a sensor surface in real time, without labels.)

In assay [3] the target is T2, human serum albumin. As to the kind of experiment: SPR, pH 7.4 (ka and kd N/A).
Assay [4] has as its target T2, human serum albumin. In words: SPR, pH 7.4 and 5.5.
In assay [5] the target is T2, human serum albumin. As to the kind of experiment: SPR, Langmuir 1:1 or steady state model, pH 5.5.
The target of assay [6] is T2, human serum albumin. As to the kind of experiment: SPR, pH 5.5.
Assay [7] addresses T2, human serum albumin. As to the kind of experiment: SPR, pH 5.5 (ka and kd N/A).
Assay [8] has as its target T1, neonatal Fc receptor (FcRn), endogenous …. As to the kind of experiment: cell FcRn occupancy, flow cytometry, free FcRn stained with labelled anti-FcRn Fab, U937 cells, 2,500 nM HSA (SD 0.5).
Experimental: as §1

A value given as a limit tells only on which side of the number the result lay.

T1 sequence (P55899 24-365 limits assumed, chain 1 of 2): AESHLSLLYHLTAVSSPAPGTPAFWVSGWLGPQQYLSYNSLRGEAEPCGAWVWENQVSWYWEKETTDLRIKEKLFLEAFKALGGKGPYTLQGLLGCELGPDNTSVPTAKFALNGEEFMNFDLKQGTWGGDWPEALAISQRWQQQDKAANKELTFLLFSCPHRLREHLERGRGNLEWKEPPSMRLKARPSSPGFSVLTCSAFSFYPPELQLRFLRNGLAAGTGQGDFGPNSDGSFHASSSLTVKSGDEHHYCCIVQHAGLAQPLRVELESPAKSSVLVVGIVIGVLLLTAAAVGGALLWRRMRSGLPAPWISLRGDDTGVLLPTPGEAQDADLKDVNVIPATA
T1 sequence (P61769 21-119 limits assumed, chain 2 of 2): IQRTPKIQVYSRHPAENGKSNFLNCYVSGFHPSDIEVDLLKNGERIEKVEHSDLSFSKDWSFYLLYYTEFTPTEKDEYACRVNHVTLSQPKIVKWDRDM

B1: ABDEG-30GS-Alb23-SM (Fc fusion)
chain 1: DKTHTCPPCPAPELLGGPSVFLFPPKPKDTLYITREPEVTCVVVDVSHEDPEVKFNWYVDGVEVHNAKTKPREEQYNSTYRVVSVLTVLHQDWLNGKEYKCKVSNKALPAPIEKTISKAKGQPREPQVYTLPPSRDELTKNQVSLWCLVKGFYPSDIAVEWESNGQPENNYKTTPPVLDSDGSFFLYSKLTVDKSRWQQGNVFSCSVMHEALKFHYTQKSLSLSPGGGGGSGGGGSGGGGSGGGGSGGGGSGGGGSEVQLLESGGGLVQPGGSLRLSCAASGFTFRSAGMSWVRQAPGKGPEWVSSISGSGSDTLYADSVKGRFTISRDNSKNTLYLQMNSLRPEDTAVYYCTIGGSLSRSSQGTLVTVSS
chain 2: DKTHTCPPCPAPELLGGPSVFLFPPKPKDTLYITREPEVTCVVVDVSHEDPEVKFNWYVDGVEVHNAKTKPREEQYNSTYRVVSVLTVLHQDWLNGKEYKCKVSNKALPAPIEKTISKAKGQPREPQVYTLPPSRDELTKNQVSLSCAVKGFYPSDIAVEWESNGQPENNYKTTPPVLDSDGSFFLVSKLTVDKSRWQQGNVFSCSVMHEALKFHYTQKSLSLSPG
notes: also called OA-Fc-ABDEG-30GS-Alb23-F32A; OA-ABDEG-30GS-Alb23-SM
As to B1, the IC50 in assay [1] was 0.0021 µM. Further, the Kd with human serum albumin [2] came out at 49 µM; with human serum albumin [3], 49 µM; with human serum albumin [5] it was 20.3 µM; with human serum albumin [6], 20.3 µM. Moreover, the “fold decrease in affinity against OA-Fc-ABDEG-Alb23” value with human serum albumin [4] is above 300 fold. Besides, the koff with human serum albumin [5] and in the assay with human serum albumin [6] was 0.351 s⁻¹ throughout. Moreover, the kon with human serum albumin [5] and with human serum albumin [6] was 17300 M⁻¹ s⁻¹ in each case.

B2: ABDEG-30GS-Alb23-SM-A (Fc fusion)
chain 1: DKTHTCPPCPAPELLGGPSVFLFPPKPKDTLYITREPEVTCVVVDVSHEDPEVKFNWYVDGVEVHNAKTKPREEQYNSTYRVVSVLTVLHQDWLNGKEYKCKVSNKALPAPIEKTISKAKGQPREPQVYTLPPSRDELTKNQVSLWCLVKGFYPSDIAVEWESNGQPENNYKTTPPVLDSDGSFFLYSKLTVDKSRWQQGNVFSCSVMHEALKFHYTQKSLSLSPGGGGGSGGGGSGGGGSGGGGSGGGGSGGGGSEVQLLESGGGLVQPGGSLRLSCAASGFTFRSAGMSWVRQAPGKGPEWVSSISGSGSDTLYADSVKGRFTISRDNSKNTLYLQMNSLRPEDTAVYYCTIGGSLSRSSQGTLVTVSSA
chain 2: DKTHTCPPCPAPELLGGPSVFLFPPKPKDTLYITREPEVTCVVVDVSHEDPEVKFNWYVDGVEVHNAKTKPREEQYNSTYRVVSVLTVLHQDWLNGKEYKCKVSNKALPAPIEKTISKAKGQPREPQVYTLPPSRDELTKNQVSLSCAVKGFYPSDIAVEWESNGQPENNYKTTPPVLDSDGSFFLVSKLTVDKSRWQQGNVFSCSVMHEALKFHYTQKSLSLSPG
As for B2, the Kd is 19 µM in the assay with human serum albumin [7] and 31.4 µM with human serum albumin [3]. This molecule also had an IC50 in assay [8] of 0.0023 µM.

Usually IC50 stands for the concentration at which inhibition is half-maximal. A lower IC50 goes with greater potency. One may read the Kd as the free concentration of one partner at which half of the binding sites on the other are occupied at equilibrium, for simple one-to-one binding. Higher therefore signals lower affinity. The term koff denotes the rate constant with which the complex falls apart. Read a high koff as a short-lived complex. The term kon denotes the rate constant with which the complex forms. A higher kon goes with faster complex formation.

The values are drawn from patent US20250382388A1 (ARGENX, published 2025).
